Measured values taken from patent publication US20260070986A1 (AFFIMED, published 2026).

Legend:
[1] = target: T1, recombinant cynomolgus neonatal Fc receptor (FcRn), biotinylated (cynomolgus, UniProt Q8SPV9 24-297, limits assumed, site-directed biotinylation at AviTag); test: SPR (Biacore T200), 37 C, pH 6.0, biotin-captured FcRn, steady-state affinity
T1 construct: also called cynomolgus FcRn
Description: (§1) Sensor chips were pre-equilibrated in HBS-P+ running buffer for 12 hours prior to the first measurement and the detectors were normalized using BIAnormalization solution (70% w/w glycerol) according to the manufacturer's instructions.
(§2) Interaction analysis of FcRn binding was performed at pH 6.0 in PBS/0.05% Tween 20; analytes and ligands were diluted in the same buffer. […] Ligand-free surfaces in FC1 and FC3 were used as references for response signals (FC2-1, FC4-3). Interaction analysis of CD64, CD32, and murine CD16-2 binding was performed in HBS-P+ buffer and analytes and ligands were diluted in the same buffer. Biotinylated Fcγ-Receptors were captured to a density of approximately 15 to 30 RU (FC2, FC3, and FC4) before increasing concentrations (500 nM to 4000 nM) of antibody were injected, using the single-cycle kinetic mode (FC1-FC4) at a flow rate of 40 μL/min for 100 seconds followed by dissociation for 90 seconds. A zero-concentration cycle and ligand-free surface in FC1 was used for referencing of response signals (FC2-1, FC3-1, and FC4-1). Sensor chip surfaces were prepared and regenerated before and after each measurement using Biotin Capture reagent (Biotin CAPture Kit, GE Healthcare) and 6 M guanidine-HCl, 0.25 M NaOH, respectively.
(§3) Binding affinities were determined by fitting data using the steady state affinity model of the Biacore T200 Evaluation software (v3.1).

[2] = target: T2, recombinant human neonatal Fc receptor (FcRn), biotinylated (human, UniProt P55899 24-297, site-directed biotinylation at AviTag); test: as above
T2 construct: also called human FcRn
Description: as §1, §2, §3

[3] = target: T1, recombinant cynomolgus neonatal Fc …; test: SPR (Biacore), 37 °C, pH 6.0, biotin-captured cynomolgus FcRn as ligand, steady-state affinity fit
Description: Affinity parameters were evaluated for interaction with human FcRn, cynomolgus FcRn or murine FcRn using a Steady State Binding model (D-F).

[4] = target: T3, recombinant human FcγRIIC (CD32C), biotinylated (human, UniProt P31995 43-223, limits assumed, site-directed biotinylation at AviTag); test: SPR (Biacore), 37 °C, biotin-captured human CD32C as ligand, steady-state plot; left-hand column, no heading on the sheet
T3 construct: also called human CD32C
T3 sequence (looked up): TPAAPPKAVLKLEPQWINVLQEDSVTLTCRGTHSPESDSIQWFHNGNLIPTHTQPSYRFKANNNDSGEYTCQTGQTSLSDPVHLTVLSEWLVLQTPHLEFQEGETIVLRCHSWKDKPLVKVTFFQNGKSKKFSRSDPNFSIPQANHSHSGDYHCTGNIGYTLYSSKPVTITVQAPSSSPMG
Description: (§4) FIG. 21: SPR interaction analysis of antibody binding to CD32. […] Affinity parameters were evaluated for interaction with receptors using a Steady State Binding model.

[5] = target: T4, recombinant human FcγRIIB (CD32B), biotinylated (human, UniProt P31994 43-217, limits assumed, site-directed biotinylation at AviTag); test: SPR (Biacore), 37 °C, biotin-captured human CD32B as ligand, steady-state plot; left-hand column, no heading on the sheet
T4 construct: also called human CD32B
T4 sequence (looked up): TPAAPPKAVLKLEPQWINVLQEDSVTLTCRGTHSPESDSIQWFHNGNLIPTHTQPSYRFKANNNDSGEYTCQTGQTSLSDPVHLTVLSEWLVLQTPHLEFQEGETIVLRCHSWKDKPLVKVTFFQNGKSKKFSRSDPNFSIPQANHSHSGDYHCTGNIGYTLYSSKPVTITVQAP
Description: as §4

[6] = target: T5, recombinant human FcγRI (CD64), biotinylated (human, UniProt P12314 16-288, limits assumed, site-directed biotinylation at AviTag); test: SPR (Biacore), 37 °C, biotin-captured human CD64 as ligand, steady-state plot; left-hand column, no heading on the sheet
T5 construct: also called human CD64
Description: FIG. 20: SPR interaction analysis of antibody binding to CD64 and murine CD16-2. […] Affinity parameters were evaluated for interaction with receptors using a Steady State Binding model.

[7] = target: T6, human CD16A (158F) on transfected CHO cells (cAg_34) (human, UniProt P08637 17-254); test: flow cytometry on huCD16A-transfected CHO cells, anti-human IgG-APC detection
T6 construct: Exact cell-anchored construct not described; also called huCD16A
Description: To analyze binding of different antibody constructs to CHO cells transfected with human CD16A (cAg_34), relative to CD16 expression by flow cytometry, 1-2×10⁵ were resuspended in 100 μL FACS buffer (PBS (Invitrogen, cat.: 14190-169) containing 2% heat-inactivated FCS (Invitrogen, cat.: 10270-106), and 0.1% sodium azide (Roth, Karlsruhe, Germany, cat.: A1430.0100)) in round-bottom 96-well microtiter plates. After washing in FACS buffer, cells were incubated in 50 μL FACS buffer without antibodies or with titrated antibodies starting at a concentration of 100 μg/mL followed by ten 5-fold serial dilutions for 30 min on ice in the dark. After washing twice, cells were incubated with APC-conjugated goat anti-human IgG (H+L)-APC (Dianova, cat. 109-136-088) for 30 min on ice in the dark. […] After washing, binding was measured by flow cytometry and mean fluorescence intensities (MFI) of cell samples were calculated and corrected for background staining using control cells stained with secondary antibodies only.
(§5) Equilibrium dissociation constants (KD) of antibody binding were calculated by plotting MFI values and fitting a non-linear regression model for one-site binding to hyperbolic dose-response curves using GraphPad Prism.

[8] = target: T6, human CD16A (158F) on transfected CHO …; test: flow cytometry on huCD16A-transfected CHO cells (cAg_34), one-site fit of MFI, experiment 1
Description: After washing in FACS buffer, cells were incubated in 50 μL FACS buffer without antibodies or with titrated antibodies starting at a concentration of 100 μg/mL followed by ten 5-fold serial dilutions for 30 min on ice in the dark. After washing twice, cells were incubated with APC-conjugated goat anti-human IgG (H+L)-APC (Dianova, cat. 109-136-088) for 30 min on ice in the dark. […] After washing, binding was measured by flow cytometry and mean fluorescence intensities (MFI) of cell samples were calculated and corrected for background staining using control cells stained with secondary antibodies only.
as §5

T1 sequence (Q8SPV9 24-297 limits assumed, form in doubt): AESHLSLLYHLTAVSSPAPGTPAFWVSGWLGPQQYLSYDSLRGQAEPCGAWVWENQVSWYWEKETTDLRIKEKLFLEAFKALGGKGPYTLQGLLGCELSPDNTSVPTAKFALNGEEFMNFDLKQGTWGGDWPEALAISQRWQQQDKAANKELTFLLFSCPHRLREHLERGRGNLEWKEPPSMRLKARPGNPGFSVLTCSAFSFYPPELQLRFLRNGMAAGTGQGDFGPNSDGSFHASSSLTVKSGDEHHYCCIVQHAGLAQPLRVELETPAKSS
T6 sequence (P08637 17-254 limits assumed): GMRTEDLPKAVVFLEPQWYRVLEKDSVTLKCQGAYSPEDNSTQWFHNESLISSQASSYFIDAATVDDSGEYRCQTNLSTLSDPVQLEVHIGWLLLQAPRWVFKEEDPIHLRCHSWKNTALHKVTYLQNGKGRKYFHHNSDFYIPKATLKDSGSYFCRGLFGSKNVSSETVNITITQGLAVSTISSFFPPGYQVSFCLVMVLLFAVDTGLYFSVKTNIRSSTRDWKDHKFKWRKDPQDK
T2 sequence (P55899 24-297 limits assumed, form in doubt): as the sequence (Q8SPV9 24-297 limits assumed, form in doubt) above, with D39N, Q44E, S99G, G189S, N190S, M217L, T269S counted along it
T5 sequence (P12314 16-288 limits assumed): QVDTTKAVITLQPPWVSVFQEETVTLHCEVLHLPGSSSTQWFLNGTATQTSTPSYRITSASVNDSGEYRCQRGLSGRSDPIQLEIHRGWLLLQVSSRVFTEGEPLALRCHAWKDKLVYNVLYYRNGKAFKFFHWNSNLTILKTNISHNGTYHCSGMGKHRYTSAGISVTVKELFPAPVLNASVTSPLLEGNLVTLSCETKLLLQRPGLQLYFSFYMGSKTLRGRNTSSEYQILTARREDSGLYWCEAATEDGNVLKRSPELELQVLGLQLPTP

Kd [1]: 238 nM
Kd [2]: 364 nM
Kd [3]: 238 nM
binding result [4]: no binding
binding result [5]: no binding
binding result [6]: no binding
EC50 (read off the curve) [7]: ~8 nM
Kd [8]: 17.7 nM
B1: scFv-IgAb_268 (CD123-1xCD16a1) (bispecific antibody)
heavy: QVQLQQSGAEVKKPGASVKVSCKASGYTFTDYYMKWVKQSHGKSLEWMGDIIPSNGATFYNQKFKGKATLTVDRSTSTAYMELSSLRSEDTAVYYCARSHLLRASWFAYWGQGTLVTVSSASTKGPSVFPLAPSSKSTSGGTAALGCLVKDYFPEPVTVSWNSGALTSGVHTFPAVLQSSGLYSLSSVVTVPSSSLGTQTYICNVNHKPSNTKVDKKVEPKSCDKTHTCPPCPAPEFEGGPSVFLFPPKPKDTLMISRTPEVTCVVVAVSHEDPEVKFNWYVDGVEVHNAKTKPREEQYNSTYRVVSVLTVLHQDWLNGKEYKCKVSNKALPAPIEKTISKAKGQPREPQVYTLPPSREEMTKNQVSLTCLVKGFYPSDIAVEWESNGQPENNYKTTPPVLDSDGSFFLYSKLTVDKSRWQQGNVFSCSVMHEALHNHYTQKSLSLSPGGGGGSGGGGSGGGGSGGGGSGGGGSGGGGSSYELTQPLSVSVALGQTARITCGGNNIGSKSVHWYQQKPGQAPVLVIYQDKKRPSGIPERFSGSNSGNTATLTISRAQAGDEADYYCQVWDDYIVLFGCGTKLTVLGGSGGSGGSGGSGGSGGSGGSQVQLVQSGAEVKKPGASVKVSCKASGYTFTNYYMQWVRQAPGQCLEWMGIINPSGGVTSYAQKFQGRVTMTRDTSTSTVYMELSSLRSEDTAVYYCARGSAYYYDFADYWGQGTLVTVSS
light: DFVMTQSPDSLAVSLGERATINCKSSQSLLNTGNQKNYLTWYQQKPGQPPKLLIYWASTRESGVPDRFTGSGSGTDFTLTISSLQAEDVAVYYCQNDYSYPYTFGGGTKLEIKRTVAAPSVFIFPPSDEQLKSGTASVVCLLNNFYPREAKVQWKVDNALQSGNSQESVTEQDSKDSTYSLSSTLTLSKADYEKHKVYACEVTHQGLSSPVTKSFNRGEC
notes: also called AFM28; CD123xCD16A scFv-IgAb_268
